One assay has as its target GST protein (UniProt P08515 1-218 = GST). Put plainly: SPR (Biacore T200), antibody captured on anti-human Fc.
Assay [1] concerns the target T1, recombinant human STAT3 proteins (human, UniProt P40763 1-770, limits assumed).
T1 construct: It may be the same STAT3-GST as in the Biacore assay
The experiment in a line: STAT3 binding ELISA, Hu-IgG-FAB detection (sheet title; legend paragraph 22 says 'to human IgG'); OD 450 nm; the EC50 column has no unit, x axis in ng/ml. In general terms: ELISA stands for enzyme-linked immunosorbent assay.

Assay [2] deals with T1, recombinant human STAT3 proteins. The experiment in a line: ELISA on recombinant human STAT3 (sheet title 'STAT 3 binding'); Abs 450.
Assay [3] shares this target. Put plainly: binding ELISA with Superblock as blocking buffer; coated antigen not named on the sheet (legend paragraph 30 says 'to human IgG'), taken as STAT3 by analogy with the title of FIG. 10; OD 450 nm; the EC50 row has no unit, x axis in ng/ml.
For assay [4], the target named is T2, STAT3 in fixed or permeabilized human tumour cells (U251 glioblastoma); MDA-MB-468 / MDA-MB-435 breast cancer … (human, UniProt P40763 2-770).
T2 construct: whole, on cells; STAT3 is intracellular and the cells were permeabilized; also called cellular antigens; cellular targets
The experiment in a line: flow cytometry on fixed, methanol-permeabilized U251 cells; PE anti-human IgG; MFI (FL-2). The procedure:
(§1) Next, the binding of the candidate anti-STAT3 antibodies to cellular targets was tested in cell binding assays using MDA-MB-435 breast cancer cells and U251 cells. The cells were seeded overnight in a 96 well plate, then fixed with PFA and permeabilized with methanol. Cells were incubated with serial dilutions of the anti-STAT3 antibody candidates ST1A5, ST3G12 and ST5G12 for one hour and 30 minutes. Following incubation, the cells were washed and incubated for 30 minutes with phycoerythrin (PE) conjugated anti-human IgG. Fluorescence was measured on an Intellicyte high-throughput flow cytometry analyzer. […] Bevacizumab (Avastin), a monoclonal antibody that inhibits vascular endothelial growth factor A (VEGF-A) was used as a negative control. As shown in FIG. 8A and FIG. 8B, the anti-STAT3 antibodies ST5G12 and ST3G12 both bound STAT3, with ST5G12 being an especially strong binder.

The target of assay [5] is T1, recombinant human STAT3 proteins. The experiment in a line: 'Binding ELISA, Hu-IgO Detection' (sheet title, 01052015), Superblock as blocking buffer; coated antigen not named, taken as STAT3 by analogy with the title of FIG. 10; OD 450 nm; the EC50 row has no unit, x axis in ng/ml.
The target of assay [6] is T3, Recombinant human STAT3-GST (human, UniProt P40763 1-770).
T3 construct: The order of STAT3 and GST follows the printed name 'STAT3-GST' only; not shown: GST (glutathione S-transferase) tag
Put plainly: SPR (Biacore T200), antibody captured on anti-human Fc, STAT3-GST as analyte, 1:1 model. The procedure:
Anti-human Fc antibody (GE, BR-1008-39) was immobilized on a CMS sensor chip to approximately 1000 RU using standard NHS/EDC coupling methodology. Antibodies (approximately 10 ug/ml) were captured for 60 seconds at a flow rate of 10 ul/min Recombinant human STAT3-GST was serially diluted 2-fold into running buffer (HBS-EP+, starting from […]). All measurements were conducted at a flow rate of 30 ul/min Surfaces were regenerated with 3M MgCl₂ (from human antibody kit) for 60 seconds. A 1:1 (Langmuir) binding model was used to fit the data.
A general note: Surface plasmon resonance follows binding to a sensor surface in real time, without labels.

The target of assay [7] is T2, STAT3 in fixed or permeabilized human …. Put plainly: flow cytometry (HTFC) on permeabilized U251 cells; PE anti-human IgG; MFI. The procedure:
After 45 minutes at room temperature, cells were washed twice and incubated with phycoerythrin (PE) conjugated-anti-human IgG for 20 minutes at room temperature in the dark. Cells were then washed and analyzed by high throughput flow cytometry (HTFC). The results are shown in FIG. 9 for assessment of antibody binding to cellular antigens in U251 cells.

In assay [8] the target is T1, recombinant human STAT3 proteins. The experiment in a line: 'Binding ELISA, Hu-IgO Detection' (sheet title), Superblock as blocking buffer; second column of the table taken as the curve labelled 901a; coated antigen not named, taken as STAT3; the EC50 row has no unit, x axis in ng/ml.
For assay [9] the target is unchanged. The experiment in a line: binding ELISA with Superblock as blocking buffer; second column of the table taken as the curve labelled 901a (only two curves, two columns); coated antigen not named on the sheet, taken as STAT3; the EC50 row has no unit, x axis in ng/ml.
Assay [10] addresses T2, STAT3 in fixed or permeabilized human …. Put plainly: flow cytometry on fixed, methanol-permeabilized MDA-MB-468 cells (sheet title; legend paragraph 19 says MDA-MB-435); PE anti-human IgG; MFI (FL-2). The procedure: as §1
A general note: A flow cytometer gives signals particle by particle.

Values joined by “and” are separate entries in the source; they are usually repeats but may differ in a detail not shown here. Equal values may be shown once.

T1 sequence (P40763 whole entry): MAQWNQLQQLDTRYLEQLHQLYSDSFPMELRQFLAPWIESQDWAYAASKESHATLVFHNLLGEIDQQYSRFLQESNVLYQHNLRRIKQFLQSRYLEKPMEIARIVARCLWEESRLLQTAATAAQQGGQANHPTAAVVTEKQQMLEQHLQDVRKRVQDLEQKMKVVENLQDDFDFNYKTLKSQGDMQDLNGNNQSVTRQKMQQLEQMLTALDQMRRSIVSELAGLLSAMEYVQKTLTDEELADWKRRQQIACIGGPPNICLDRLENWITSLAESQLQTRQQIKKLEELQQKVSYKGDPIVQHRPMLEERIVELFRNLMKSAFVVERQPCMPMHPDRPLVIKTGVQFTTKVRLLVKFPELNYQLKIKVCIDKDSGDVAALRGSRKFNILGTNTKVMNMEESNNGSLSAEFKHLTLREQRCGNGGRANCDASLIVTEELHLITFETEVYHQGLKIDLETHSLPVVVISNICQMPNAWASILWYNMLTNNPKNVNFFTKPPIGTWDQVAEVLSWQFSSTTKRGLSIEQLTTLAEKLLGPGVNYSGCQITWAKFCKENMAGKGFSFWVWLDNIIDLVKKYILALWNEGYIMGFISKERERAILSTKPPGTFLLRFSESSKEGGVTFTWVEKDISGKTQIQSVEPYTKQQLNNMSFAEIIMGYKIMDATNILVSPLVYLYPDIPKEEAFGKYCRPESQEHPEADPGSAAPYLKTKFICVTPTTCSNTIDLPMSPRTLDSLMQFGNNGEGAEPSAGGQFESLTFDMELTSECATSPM
T3 sequence (P40763 whole entry): as above
T2 sequence (P40763 2-770): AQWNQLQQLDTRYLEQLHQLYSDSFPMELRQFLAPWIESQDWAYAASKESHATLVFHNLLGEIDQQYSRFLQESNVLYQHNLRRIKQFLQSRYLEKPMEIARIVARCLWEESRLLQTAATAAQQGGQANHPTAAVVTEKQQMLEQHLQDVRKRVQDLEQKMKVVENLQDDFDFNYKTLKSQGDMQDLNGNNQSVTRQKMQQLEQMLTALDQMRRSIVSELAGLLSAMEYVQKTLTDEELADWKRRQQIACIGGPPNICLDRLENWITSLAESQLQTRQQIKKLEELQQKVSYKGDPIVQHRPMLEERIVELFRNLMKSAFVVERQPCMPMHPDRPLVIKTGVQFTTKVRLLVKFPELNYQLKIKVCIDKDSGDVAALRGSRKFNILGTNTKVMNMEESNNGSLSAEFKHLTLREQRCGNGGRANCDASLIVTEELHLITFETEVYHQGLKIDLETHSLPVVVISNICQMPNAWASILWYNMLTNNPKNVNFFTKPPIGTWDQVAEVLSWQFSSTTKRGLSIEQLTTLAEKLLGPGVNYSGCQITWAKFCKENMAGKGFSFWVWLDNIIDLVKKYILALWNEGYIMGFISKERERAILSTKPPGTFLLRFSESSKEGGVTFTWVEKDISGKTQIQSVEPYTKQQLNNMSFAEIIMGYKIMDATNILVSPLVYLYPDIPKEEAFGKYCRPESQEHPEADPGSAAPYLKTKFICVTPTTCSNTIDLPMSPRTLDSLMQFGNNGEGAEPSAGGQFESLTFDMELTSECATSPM
Sequence of GST protein (P08515 whole entry): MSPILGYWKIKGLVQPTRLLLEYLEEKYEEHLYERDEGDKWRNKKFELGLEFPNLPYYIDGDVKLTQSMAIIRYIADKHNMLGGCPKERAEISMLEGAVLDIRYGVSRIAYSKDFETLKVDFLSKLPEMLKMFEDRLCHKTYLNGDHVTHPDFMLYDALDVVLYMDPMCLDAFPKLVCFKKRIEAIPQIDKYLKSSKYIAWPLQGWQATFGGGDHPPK

B1: anti-STAT3 antibody ST3G12 (unmodified) (antibody, V domains shown)
VH: QVQLVQSGAEVKKPGASVKVSCKASGYTFTSYYMHWVRQAPGQGLEWMGIINPSGGSTSYAQKFQGRVTMTRDTSTSTVYMELSSLRSEDTAVYYCARSDYVHSFDIWGQGTMVTVSS
VL: QPVLTQPPSASALLGASIKLTCTLSSEHSTYTVEWYQQRPGRSPQYIMNVKSDGSYNKGDGIPDRFMGSSSGADRYLTFSNLQSDDEAEYHCGESHRIDGQVGVVFGGGTKLTVL
notes: also called naked anti-STAT3 ST3G12 antibody
As to B1, the binding result with GST protein is recorded as “no binding”. Further, the results for the EC50 in assay [1], in assay [3] and in [5] were 0.155 µg/mL, 0.122 µg/mL and 0.0257 µg/mL, respectively. The EC50 (read off the curve) (in general, the concentration at which the effect is half-maximal) is roughly 0.06 µg/mL in assay [2], roughly 4 nM in assay [4] and roughly 9 nM in assay [7]. Further, in assay [6], the Kd (usually the constant that tells how readily two partners part at equilibrium) worked out at 5.39 nM. In assay [6], the koff (commonly a measure of how fast the partners let go of each other) stood at 0.000322 s⁻¹. Besides, the kon (usually a measure of how fast the partners come together) in assay [6] amounted to 59700 M⁻¹ s⁻¹.

B2: compound 901a (ST3G12 conjugated to the phosphorothioate oligonucleotide, non-fluorescein version) (antibody, V domains shown)
VH: B1 VH
VL: B1 VL
modifications: phosphorothioate oligonucleotide joined to the antibody through a linker; residue(s) and chain of attachment not stated
notes: also called ST3G12-PS
Consider B2, for which, in the assay with GST protein, the binding result was “no binding”. Moreover, the EC50 – broadly, the concentration that produces a half-maximal response – in assay [1] came out at 0.153 µg/mL. In addition, in [2], the “EC50 (read off the curve)” value was ~0.06 µg/mL and ~0.1 µg/mL. Also, in assay [8], the EC50 stood at 0.0643 µg/mL. In addition, in [9], the EC50 was 0.186 µg/mL. In [6], the Kd came to 0.222 nM, the koff turned out to be 0.00011 s⁻¹ and the kon was 494000 M⁻¹ s⁻¹.

B3: anti-STAT3 antibody ST1A5 (antibody, V domains shown)
VH: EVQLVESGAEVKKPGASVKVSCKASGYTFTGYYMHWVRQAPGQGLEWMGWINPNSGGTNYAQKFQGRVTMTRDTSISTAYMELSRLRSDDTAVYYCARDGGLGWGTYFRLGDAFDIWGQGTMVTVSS
VL: QSVLTQPPSVSKGLRQTATLTCTGNSNNVGNEGAAWLQQHQGHPPKLLSYRNFNRPSGISERFSASRSGNTASLTITGLQPEDEADYYCSAWDSSLSAWVFGGGTKLTVL
notes: Human antibody; it was detected with anti-human IgG
As to B3, the 50% effective concentration (EC50 (read off the curve)) in assay [4] is roughly 8 nM; in assay [10], roughly 6 nM.
